From patent publication US20140271458A1 (AbbVie / Abbott, published 2014)
Where a chain is given by its changes, count along the chain named.

T1: Recombinant Human IL-17 (human, UniProt Q16552 20-155, limits assumed)
T1 sequence (looked up): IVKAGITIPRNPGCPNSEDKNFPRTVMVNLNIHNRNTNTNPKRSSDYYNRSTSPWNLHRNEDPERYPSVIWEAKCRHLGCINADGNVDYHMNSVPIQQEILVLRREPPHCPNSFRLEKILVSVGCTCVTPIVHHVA

B1: DVD3415 (bispecific antibody, human IgG1)
heavy: EVQLVESGGGVVQPGRSLRLSCSASGFIFSRYDMSWVRQAPGKGLEWVAYISHGGAGTYYPDSVKGRFTISRDNSKNTLFLQMDSLRPEDTGVYFCARGGVTKGYFDVWGQGTPVTVSSGGGGSGGGGSEVQLVQSGAEVKKPGSSVKVSCKASGGSFGGYGIGWVRQAPGQGLEWMGGITPFFGFADYAQKFQGRVTITADESTTTAYMELSGLTSDDTAVYYCARDPNEFWGGYYSTHDFDSWGQGTTVTVSSASTKGPSVFPLAPSSKSTSGGTAALGCLVKDYFPEPVTVSWNSGALTSGVHTFPAVLQSSGLYSLSSVVTVPSSSLGTQTYICNVNHKPSNTKVDKKVEPKSCDKTHTCPPCPAPEAAGGPSVFLPPPKPKDTLMISRTPEVTCVVVDVSHEDPEVKFNWYVDGVEVHNAKTKPREEQYNSTYRVVSVLTVLHQDWLNGKEYKCKVSNKALPAPIEKTISKAKGQPREPQVYTLPPSREEMTKNQVSLTCLVKGFYPSDIAVEWESNGQPENNYKTTPPVLDSDGSFFLYSKLTVDKSRWQQGNVFSCSVMHEALHNHYTQKSLSLSPGK
light: DIQMTQSPSSLSASVGDRVTITCRASGNIHNYLTWYQQTPGKAPKLLIYNAKTLADGVPSRFSGSGSGTDYTFTISSLQPEDIATYYCQHFWSIPYTFGQGTKLQITRGGSGGGGSGEIVLTQSPDFQSVTPKEKVTITCRASQDIGSELHWYQQKPDQPPKLLIKYASHSTSGVPSRFSGSGSGTDFTLTINGLEAEDAGTYYCHQTDSLPYTFGPGTKVDIKRTVAAPSVFIFPPSDEQLKSGTASVVCLLNNFYPREAKVQWKVDNALQSGNSQESVTEQDSKDSTYSLSSTLTLSKADYEKHKVYACEVTHQGLSSPVTKSFNRGEC
notes: human kappa; also called DVD3415H; DVD3415L
B2: DVD3418 (bispecific antibody, human IgG1)
heavy: B1 heavy with P88A, G92A, F95Y, T102Y
light: B1 light
notes: human kappa; also called DVD3418H; DVD3418L
B3: AB270 (antibody, V domains shown)
VH: EVQLQESGPGLVKPSETLSLTCTVSGFSLSDYGVSWIRQPPGKGLEWLGLIWGGGDTYYNSPLKSRLTISKDNSKSQVSLKLSSVTAADTAVYYCAKQRTLWGYDLYGMDYWGQGTLVTVSS
VL: DTQVTQSPSSLSASVGDRVTITCITSTDIDVDMNWYQQKPGKPPKLLISQGNTLRPGVPSRFSSSGSGTDFTFTISSLQPEDFATYYCLQSDNLPLTFGQGTKLEIKR
notes: Parent anti-IL-1β antibody; also called AB270VH
B4: AB273 (antibody, V domains shown)
VH: EVQLVQSGAEVKKPGSSVKVSCKASGYTFTDYEIHWVRQAPGQGLEWMGVNDPESGGTFYNQKFDGRVTLTADESTSTAYMELSSLRSEDTAVYYCTRYSKWDSFDGMDYWGQGTTVTVSS
VL: DIQMTQSPSSLSASVGDRVTITCRASSGIISYIDWFQQKPGKAPKRLIYATFDLASGVPSRFSGSGSGTDYTLTISSLQPEDFATYYCRQVGSYPETFGQGTKLEIKR
notes: Parent anti-IL-17 antibody; also called AB273VH
B5: AB420 (antibody, V domains shown)
VH: EVQLVQSGAEVKKPGSSVKVSCKASGGSFGGYGIGWVRQAPGQGLEWMGGITPFFGFADYAQKFQGRVTITADESTTTAYMELSGLTSDDTAVYYCARDPNEFWGGYYSTHDFDSWGQGTTVTVSS
VL: EIVLTQSPDFQSVTPKEKVTITCRASQDIGSELHWYQQKPDQPPKLLIKYASHSTSGVPSRFSGSGSGTDFTLTINGLEAEDAGTYYCHQTDSLPYTFGPGTKVDIKR
B6: AB271 (antibody, V domains shown)
VH: B3 VH
VL: DTVVTQSPAFLSVTPGEKVTITCITSTDIDVDMNWYQQKPDQPPKLLISQGNTLRPGVPSRFSSSGSGTDFTFTISSLEAEDAATYYCLQSDNLPLTFGQGTKLEIKR
notes: Parent anti-IL-1β antibody; also called AB271VH
B7: AB272 (antibody, V domains shown)
VH: EVQLVESGGGLVQPGGSLRLSCAVSGFTLSDYGVSWIRQAPGKGLEWLGLIWGGGDTYYNSPLKSRLTISKDNSKSTVYLQMNSLRAEDTAVYYCAKQRTLWGYDLYGMDYWGQGTLVTVSS
VL: B3 VL with D1E, Q3T
notes: Parent anti-IL-1β antibody; also called AB272VH
B8: AB461 (antibody, V domains shown)
VH: EVQLVQSGAEVKKPGESVKISCKASGGSFRSYGISWVRQAPGQGLEWMGGITHFFGITDYAQKFQGRVTITADESTTTAYMELSGLTSDDTAVYYCAREPNDFWGGYYDTHDFDSWGQGTTVTVSS
VL: B5 VL with D28N, P43S, T55I, G84A, T91S, S93T, Y96H, P100Q
notes: Parent anti-IL-17 antibody; also called AB461VH

How the values were obtained:
[1] = target: T2, Recombinant Human IL-1b (human, UniProt P01584 117-269); assay: cell-based or functional assay
[2] = target: T1, Recombinant Human IL-17; assay: cell-based or functional assay
[3] = target: T2, Recombinant Human IL-1b; assay: SPR, Biacore T200, DVD-Ig captured, antigen 0.8-100 nM, 25 C
Protocol: (§1) The BIACORE assay (GE, Healthcare Piscataway, N.J.) determined the affinity of antibodies or DVD-Ig proteins with kinetic measurements of on-rate and off-rate constants. Binding of antibodies or DVD-Ig proteins to a target antigen (for example, a purified recombinant target antigen) was determined by surface plasmon resonance-based measurements with a Biacore T200 using running HBS-EP+buffer from GE Healthcare at 25° C. AN chemicals were obtained from GE Healthcare unless otherwise described. For example, approximately 5000 RU of goat anti-mouse IgG, (Fcγ), fragment specific polyclonal antibody (Pierce Biotechnology Inc, Rockford, Ill.) diluted in 10 mM sodium acetate (pH 4.5) was directly immobilized across a CM5 research grade biosensor chip using a standard amine coupling kit according to manufacturer's instructions. Unreacted moieties on the biosensor surface were blocked with ethanolamine. Modified carboxymethyl dextran surface in flowcell 1 was used as a reference surface. Rate constants were derived by making kinetic binding measurements at different antigen concentrations ranging from 0.8-100 nM. Binding was recorded as a function of time and kinetic rate constants were calculated. In this assay, association rate was evaluated for 5 minutes and dissociation was monitored for 10 minutes. For kinetic screening analysis, rate equations derived from the 1:1 binding model were fitted simultaneously to association and dissociation phases of all injections (using global fit analysis with Rmax fit locally to account for capture variations) with the use of Biaevaluation software. Purified antibodies or DVD-Ig proteins were diluted in HEPES-buffered saline for capture across goat anti-mouse IgG specific reaction surfaces. Antibodies or DVD-Ig proteins to be captured as a ligand were injected over reaction matrices at a flow rate of 5 μl/minute. The association and dissociation rate constants, kₒₙ (M⁻¹s⁻¹) and koff (s⁻¹) were determined under a continuous flow rate of 50 μl/minute. Rate constants were derived by making kinetic binding measurements at different antigen concentrations ranging from 0.8-100 nM. Binding was recorded as a function of time and kinetic rate constants were calculated. In this assay, association rate was evaluated for 5 minutes and dissociation was monitored for 10 minutes.

[4] = target: T1, Recombinant Human IL-17; assay: as above
Protocol: as §1

[5] = target: T2, Recombinant Human IL-1b; assay: SPR, Biacore T200, antibody captured, antigen 0.8-100 nM, 25 C
Protocol: as §1

[6] = target: T1, Recombinant Human IL-17; assay: as above
Protocol: as §1

Row | Binder | N-Terminal VD IL-1β Neutralization Assay (IC50 nM) [1] | C-Terminal VD IL17 Neutralization Assay (IC50 nM) [2] | Kd [5] | koff [5] | kon [5] | other results
1 | B1 | 0.027 nM | 0.091 nM | – | – | – | Kd [3]: 0.051 nM; koff [3]: 3.8e-05 s⁻¹; kon [3]: 740000 M⁻¹ s⁻¹; Kd [4]: < 0.0048 nM; koff [4]: < 1e-06 s⁻¹; kon [4]: 210000 M⁻¹ s⁻¹
2 | B2 | 0.018 nM | 0.068 nM | – | – | – | Kd [3]: 0.034 nM; koff [3]: 1.8e-05 s⁻¹; kon [3]: 540000 M⁻¹ s⁻¹; Kd [4]: < 0.0048 nM; koff [4]: < 1e-06 s⁻¹; kon [4]: 210000 M⁻¹ s⁻¹
3 | B3 | 0.239 nM | – | 0.08 nM | 0.00053 s⁻¹ | 6.6e+06 M⁻¹ s⁻¹ | –
4 | B4 | – | 0.031 nM | – | – | – | Kd [6]: 0.0046 nM; koff [6]: 1.3e-05 s⁻¹; kon [6]: 2.7e+06 M⁻¹ s⁻¹
5 | B5 | – | 0.048 nM | – | – | – | –
6 | B6 | 0.301 nM | – | 0.11 nM | 0.00051 s⁻¹ | 4.6e+06 M⁻¹ s⁻¹ | –
7 | B7 | 0.424 nM | – | 0.14 nM | 0.00056 s⁻¹ | 4e+06 M⁻¹ s⁻¹ | –
8 | B8 | – | – | – | – | – | Kd [6]: 0.00086 nM; koff [6]: 5.3e-06 s⁻¹; kon [6]: 6.2e+06 M⁻¹ s⁻¹
